Measured values as given in paper PMC7197785 (PLoS Pathogens, 2020).

What was measured:
MBPEhC2BHis = target: T1, MBPEhC2BHis (E. histolytica, UniProt C4M344 1-208); test: ITC; conditions: both partners purified
T1 construct: also called EhC2B full-length; not shown: MBP, N-terminal, kept; His-tag, C-terminal, kept
T1 sequence: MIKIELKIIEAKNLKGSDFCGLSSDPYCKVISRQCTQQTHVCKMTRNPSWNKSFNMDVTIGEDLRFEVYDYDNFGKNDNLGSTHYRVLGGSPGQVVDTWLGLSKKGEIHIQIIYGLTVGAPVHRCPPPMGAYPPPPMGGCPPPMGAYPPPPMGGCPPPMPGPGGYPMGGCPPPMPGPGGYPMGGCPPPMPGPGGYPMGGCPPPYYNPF

[1] = target: HisEhC2B121 (E. histolytica); test: ITC

B1: GSTEhRab21 (enzyme)
chain: MENEFKVVLLGEGKVGKTSMILRYTQNFFTPEEGPRTTQASYVSKTLNIDKNDYIINIWDTAGQEKYQALTPIYYRDSQGAILVYDITEPRSFQRVQTEVDNIRDMLGDSCCIVIVGNKMDLVQQRKISKEEADKYAESVKAIHYLCSCATGDGISDVFEGLTKQMVDKRKSLGDDELFDRKKSTLVFQDDKNNTRQAKSDCC
notes: also called GppNHp-GSTEhRab21; GDP-GSTEhRab21; source: recombinant, purified
With B1 the Ka (MBPEhC2BHis) was 1.24e+07 M⁻¹, the dH (MBPEhC2BHis) was -9.23 kcal/mol and the “stoichiometry N” value (MBPEhC2BHis) was 1. The Ka [1] was 9.6e+06 M⁻¹, the dH [1] was -15.6 kcal/mol and the stoichiometry N [1] was 1.
